The source of these data is patent publication US20240216536.

Data set [1] concerns the target T1, His-S5A substrate (E6AP Ubiquitin Ligase Kit-S5a Substrate, Boston Biochem #K-230), P55036.
T1 chain: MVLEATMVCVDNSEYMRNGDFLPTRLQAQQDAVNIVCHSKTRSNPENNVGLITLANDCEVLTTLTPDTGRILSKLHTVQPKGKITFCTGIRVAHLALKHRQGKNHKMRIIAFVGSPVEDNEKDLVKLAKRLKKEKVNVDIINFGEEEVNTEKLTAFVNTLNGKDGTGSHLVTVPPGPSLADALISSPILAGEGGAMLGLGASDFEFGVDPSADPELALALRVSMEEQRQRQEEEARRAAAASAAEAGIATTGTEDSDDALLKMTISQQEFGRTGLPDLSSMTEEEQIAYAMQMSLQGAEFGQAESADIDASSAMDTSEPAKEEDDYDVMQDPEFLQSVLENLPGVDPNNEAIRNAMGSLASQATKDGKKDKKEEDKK

B1: rat UBE3A protein (endogenous, from wild type rat cerebrospinal fluid and hippocampal dialysate) (protein)
chain: MATACKRSSGESQSEDIEASRMKRAAAKHLIERYYHQLTEGCGNEACTNEFCASCPTFLRMDNNAAAIKALELYKINAKLCDPHPSKKGASSAYLENSKGASNNSEIKMNKKEEFKEVDYLTEEKVYEIYEFCREREDYSPLIRVIGRIFSSAEALVQSFRKVKQHTKEELKSLQEKDEDKDEDEKEKAACSAAAMEEDSEASSSRMGDSSQGDNNVQKLGPDDVTVDIDAIRRVYSSLLSDEKIETAFLNALVYLSPNVECDLTYHNVYTRDPNYLNLFIIVMENRNLHSPEYLEMALPLFCKAMSKLPLAAQGKLIRLWSKYSADQIRRMMETFQQLITYKVISNEFNSRNLVNDDDAIVAASKCLKMVYYANVVGGDVDTNHNEEDDEEPIPESSELTLQELLGEERRNKKGPRVDPLETEIGVKTLDCRKPLISFEEFINEPLNDVLEMDKDYTFFKVETENKFSFMTCPFILNAVTKNLGLYYDNRIRMYSERRITVLYSLVQGQQLNPYLRLKVRRDHIIDDALVRLEMIAMENPADLKKQLYVEFEGEQGVDEGGVSKEFFQLVVEEIFNPDIGMFTYDEATRLFWFNPSSFETEGQFTLIGIVLGLAIYNNCILDVHFPMVVYRKLMGKKGTFCDLGDSHPILYQSLKDLLEYEGNVEDDMMITFQISQTDLFGNPMMYDLKENGDKIPITNENRKEFVSLYSDYILNKSVEKQFKAFRRGFHMVTNESPLKYLFRPEEIELLICGSRNLDFQALEETTEYDGGYTRESVVIREFWEIVHSFTDEQKRLFLQFTTGTDRAPVGGLGKLKMIIAKNGPDTERLPTSHTCFNVLLLPEYSSKEKLKERLLKAITYAKGFGML
On to B1, for which the “ubiquitination assay western blot (self-ubiquitination of UBE3A)” value was “the UBE3A protein present in both the CSF and hippocampal dialysate were active in ubiquitinating both the S5A substrate and UBE3A”. Moreover, in data set [1], the “ubiquitination assay western blot (S5A band shift over time)” value is “the UBE3A protein present in both the CSF and hippocampal dialysate were active in ubiquitinating both the S5A substrate and UBE3A”; the “ubiquitination assay western blot after immuno-depletion of UBE3A (S5A band intensity)” value is “With UBE3A protein immuno-precipitated, UBE3A protein was not detected and the S5A band intensity remained unchanged over time”.
